Measured values: patent US20080044423A1

Tests used:
Assay in all cases: cell-based or functional assay
[1] = target: human IL-17A, untagged, E. coli derived (in house or Peprotech) (human) (UniProt Q16552)
[2] = target: cynomolgus IL-17A (cynomolgus)
[3] = target: human IL-17A derived from the HEK-EBNA expression system (human) (UniProt Q16552)
Sequence of human IL-17A derived from the HEK-EBNA expression system (human) (Q16552 24-155): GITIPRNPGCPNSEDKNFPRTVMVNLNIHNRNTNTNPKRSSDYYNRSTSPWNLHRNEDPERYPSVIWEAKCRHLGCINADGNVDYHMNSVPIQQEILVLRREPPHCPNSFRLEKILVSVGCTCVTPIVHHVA

Sequence of human IL-17A, untagged, E. coli derived (in house or Peprotech) (human) (Q16552 24-155): as above
Sequence of cynomolgus IL-17A (cynomolgus) (Q16552 other isoform, or with tags, fused parts or gaps limits assumed): as the sequence (Q16552 24-155) above, with T3A, P8S, N34S, I77V, N78K, P104R counted along it

Row | Substance | OA synovial fibroblast IL-8 (IL-17A 1 ng/ml + TNF 0.01 ng/ml), % Inhibition at 50 nM antibody [1] [%] | OA synovial fibroblast IL-8 (IL-17A 10 ng/ml + TNF 1 ng/ml), % Inhibition at 50 nM antibody [1] [%] | cartilage explant IL-6 (IL-17A 10 ng/ml + TNF 1 ng/ml), % inhibition at 50 nM antibody [1] [%] | cartilage explant IL-6 (pg/ml), mean, IL-17A 10 ng/ml + TNF 1 ng/ml + antibody (55.00 pg/ml without antibody) [1] [pg/mL] | HT1080 IL-6 release, IgG IC50 [2] [nM] | HT1080 IL-6 release, IgG IC50 [3] [nM]
1 | hIgG1 isotype control (human IgG1 CAT002, Cambridge Antibody Technology Limited) | -1.3 | -3.9 | 3.3 | 53.2 | – | –
2 | mAb317 (R & D Systems) (antibody) | – | – | – | – | 14.1 | 3.2
3 | mIgG1 isotype control (mouse IgG1, R & D Systems) (antibody) | – | – | 13.8 | 47.4 | – | –
